Reference: patent publication US20090117104A1 (published 2009)
Ends that are not written are not given here.

T1: mutated human GLP-2R (human, UniProt O95838 1-553)
T1 chain: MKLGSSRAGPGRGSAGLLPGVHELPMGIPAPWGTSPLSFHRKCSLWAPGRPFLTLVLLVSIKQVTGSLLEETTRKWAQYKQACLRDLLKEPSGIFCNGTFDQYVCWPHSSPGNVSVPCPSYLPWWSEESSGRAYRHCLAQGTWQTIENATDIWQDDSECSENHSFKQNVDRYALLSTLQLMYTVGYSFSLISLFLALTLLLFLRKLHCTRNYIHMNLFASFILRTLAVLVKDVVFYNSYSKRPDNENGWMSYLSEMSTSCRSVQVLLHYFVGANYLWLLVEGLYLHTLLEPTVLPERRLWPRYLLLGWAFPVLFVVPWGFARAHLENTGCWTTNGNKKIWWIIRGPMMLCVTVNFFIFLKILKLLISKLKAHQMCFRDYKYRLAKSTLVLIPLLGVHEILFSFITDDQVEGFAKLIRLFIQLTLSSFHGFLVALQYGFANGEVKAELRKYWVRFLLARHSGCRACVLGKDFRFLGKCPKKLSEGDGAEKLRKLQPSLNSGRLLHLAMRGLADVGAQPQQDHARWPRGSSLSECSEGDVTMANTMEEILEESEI


target: mutated human GLP-2R (human) (UniProt O95838); experiment: cell-based or functional assay

EC50 (nM), cAMP expression assay [nM] | Binder
22.5 | HGDGSFSDEMNTILDNLAARDFINWLIQTKITDGGGGSGGGGSCPPCP (Fc fusion, not shown: a dimerising Fc or GST, cysteine pairing not given here; also: mimetibody: followed by CH2-CH3 domains not given here) [A2G GLP-2 mimetibody linker length variant, SEQ ID NO: 7]
2.1 | A2G GLP-2 mimetibody linker length variant, SEQ ID NO: 10 (Fc fusion, not shown: a dimerising Fc or GST) HGDGSFSDEMNTILDNLAARDFINWLIQTKITDGGGGSGGGGSGGGGSGGGGSGGGGSCPPCP
40 | HGDGSFSDEMNTILDNLAARDFINWLIQTKITDGGGGSCPPCP (Fc fusion, not shown: a dimerising Fc or GST, cysteine pairing not given here; also: mimetibody: followed by CH2-CH3 domains not given here) [A2G GLP-2 mimetibody linker length variant, SEQ ID NO: 6]
12.7 | A2G GLP-2 mimetibody linker length variant, SEQ ID NO: 8 (Fc fusion, not shown: a dimerising Fc or GST, cysteine pairing not given here; also: mimetibody: followed by CH2-CH3 domains not given here) HGDGSFSDEMNTILDNLAARDFINWLIQTKITDGGGGSGGGGSGGGGSCPPCP
3.6 | GLP-2 mimetibody Pro substitution variant, SEQ ID NO: 42 (Fc fusion, not shown: a dimerising Fc or GST) HGDGSFSDEMNTILDNLAARDFINWLIQTKITDGSGGGSGALVPVSSESKYGPPCPPCP
7.7 | GLP-2 mimetibody Pro substitution variant, SEQ ID NO: 44 (Fc fusion, not shown: a dimerising Fc or GST) HGDGSFSDEMNTILDNLAARDFINWLIQTKITDGSGGGSGALVAVSPESKYGPPCPPCP
5.8 | GLP-2 mimetibody Pro substitution variant, SEQ ID NO: 45 (Fc fusion, not shown: a dimerising Fc or GST) HGDGSFSDEMNTILDNLAARDFINWLIQTKITDGSGGGSGALVAVSSESKPGPPCPPCP
4.8 | GLP-2 mimetibody Pro substitution variant, SEQ ID NO: 43 (Fc fusion, not shown: a dimerising Fc or GST) HGDGSFSDEMNTILDNLAARDFINWLIQTKITDGSGGGSGALVAVPSESKYGPPCPPCP
4.6 | A2G GLP-2 mimetibody linker length variant, SEQ ID NO: 9 (Fc fusion, not shown: a dimerising Fc or GST, cysteine pairing not given here; also: mimetibody: followed by CH2-CH3 domains not given here) HGDGSFSDEMNTILDNLAARDFINWLIQTKITDGGGGSGGGGSGGGGSGGGGSCPPCP

Target: T1, mutated human GLP-2R
Experiment: cell-based or functional assay

activity in the cAMP expression assay relative to wild type GLP-2 [fold less] | potency in the cAMP expression assay relative to the corresponding peptide [fold less] | Binder
2 | – | HGDGSFSDEMNTILDGQAARDFINWLIQTKITD [GLP-2(A2G, N16G, L17Q)]
3 | – | HGDGSFSDEMNTILDNQAARDFINWLIQTKITD [GLP-2(A2G, L17Q)]
– | ~4 | A2S GLP-2 IgG4 mimetibody (Fc fusion) HSDGSFSDEMNTILDNLAARDFINWLIQTKITDGSGGGSGTLVTVSSESKYGPPCPPCPAPEAAGGPSVFLFPPKPDTLMISRTPEVTCVVVDVSQEDPEVQFNWYVDGVEVHNAKTKPREEQFNSTYRVVSVLTVLHQDWLNGKEYKCKVSNKGLPSSIEKTISKAKGQPREPQVYTLPPSQEEMTKNQVSLTCLVKGFYPSDIAVEWESNGQPENNYKTTPPVLDSDGSFFLYSRLTVDKSRWQEGNVFSCSVMHEALHNHYTQKSLSLSLGK
